The DeepSol protein solubility set

Test: soluble on expression in E. coli; label from the status in PepcDB or PDB records

Row | Sequence | soluble on expression in E. coli
1 | MSEPLDLNQLAQKIKQWGLELGFQQVGITDTDLSESEPKLQAWLDKQYHGEMDWMARHGMLRARPHELLPGTLRVISVRMNYLPANAAFASTLKNPKLGYVSRYALGRDYHKLLRNRLKKLGEMIQQHCVSLNFRPFVDSAPILERPLAEKAGLGWTGKHSLILNREAGSFFFLGELLVDIPLPVDQPVEEGCGKCVACMTICPTGAIVEPYTVDARRCISYLTIELEGAIPEELRPLMGNRIYGCDDCQLICPWNRYSQLTTEEDFSPRKPLHAPELIELFAWSEEKFLKVTEGSAIRRIGHLRWLRNIAVALGNAPWDETILTALESRKGEHPLLDEHIAWAIAQQIERRNACIVEVQLPKKQRLVRVIEKGLPRDA | soluble
2 | MSEQQVQELEKKWYALQVEPGKENEAKENLLKVLELEGLKDLVDEVIVPAEEKVVIRAQGKEKYRLSLKGNARDISVLGKKGVTTFRIENGEVKVVESVEGDTCVNAPPISKPGQKITCKENKTEAKIVLDNKIFPGYILIKAHMNDKLLMAIEKTPHVFRPVMVGGKPVPLKEEEVQNILNQIKRGVKPSKVEFEKGDQVRVIEGPFMNFTGTVEEVHPEKRKLTVMISIFGRMTPVELDFDQVEKI | soluble
3 | MSEQYKQPNTPEPYWRQSTPLPDFKPLQNDLLVDVVIVGGGITGITTAYLLQKRGKKVVILEADRLFNGTTGHTTAKITAQHGLIYDEFIQHFGEDKAKQYYDAQMEAKTFIKNTVQDLSIDCDFQEHDAYIYTNANRYLAKLEREMRAYEKLQINGSLIDSMPLQVPIKKAIVMKGQAQFHPIAYLMKLVQDFIDRGGLIFEHTVATDVDKGEHRTVLTRDGHKVTCDYVVESSHFPFFDRGFYFSRMYADRSYVLGLKVKEPYPGGMYLSAEDPPRSIRHASYQGEDLWLISGETHKTGQGMDTDYHYEALESFSREMFNVTDISYRWSAQDLVTLDRMPYIGPATSNDPHILVATGFRKWGMTNGTIAAHVITDLIIGQVNAYQKLFAPQRFVADPSLRKFFSYNVDVAKHLIDGKTEKGSRTPESLQKDEGDVVNVNGKRAGGYRDTDGALHLVDTTCTHMGCEVSWNHGDRTWDCPCHGSRFSYDGEVVEGPAKKPLKKIDHTLEHHHHHH | soluble
4 | MSERVCAVIVTYNRKALLRECLKAVLSQTRPPDHVLVVDNASTDGTPEMLQEEFPQVEVLRLPENQGGAGGFHEGMKRAYEQGVDWLWLMDDDTIPKAKALEALLEAARLPLDPRPRVLASRQLLPNGLPHPTTAFVNPTDPRHPFLWLRLRPRYRPIRWALFTSVLLHRSLVEEHGLPHKAFFIWEDDLEYTARALRRGLGLQVRDSEVIHKSASKPYISATTGENRLFYGVRNRIWVLRSPAFGPLGKAFLALQLLFGLLTYLAFHPSQKSLQEIGRALRAGLTTSPCLEHHHHHH | not soluble
5 | MSEVDAQEEFHDAPEEAVIEIQKDFVAEIEQDNSNAQLVEEGDDQLVTAEADDEKSAQQVDEDRTEDQVPDITGTEYVDPMTTSMDGIEDLPANDEAQFEDTILEEDELPDQLESAENQEPRSELVSSGVEEEIIEEEDIEEIEESDYVEESAPADEPAPEEEKPQEEAPAEEPAPAEEAPQEEVPAEEPVAEETAPAEEAAVEEPVVEEAAPVEEAPEAEETAPAEEPLIEVAVEEAPAEEPVAEEAEPEAEKQEFELQAPPEGKRPRTPNDLDNPTADEEPAAELEADAGSEVPPTPKTAASEKQSVPPTPKSAAPSEVPPTPKSAAPSEVPPTPKSAAPSEVPLTPKSAAQSSVPPTPKSAVPSEAPPTPRSAAPSDVPPTPKSNGHIANGSIPGTPSVAQESAKATPAATPAATATPAATATPAATGTPKADTAFNFEETPATPRSSVPATPTESNLTTPAPKTPKTPKTPRTPRTPKTPRTPKTPAVVEPEPEPVAEEPEPVAEPEPEPEPVAEAEPEAEPAVEEEPAEEPEPAADETATEPTAEEAEPEAVEESIEKTEVVEEESAPPAARQSSPSPPPARRRPQSPSPERQRTSRHADRDITSYDEDSYRAVPPPRMPTATSFSSWSPPDKQSYTPISPFVSTANKYRNEYTSGSSYRPTNMYTSHFDDIVATGAFSSALYSTNRLIERSRSRTRERKQAMRSQRSASNYYRYSSQAPAPLRAREYSTPPTREISRAPSRNTSFVSFLDYSSAKQGELSRANSRTSIYGDSLSRSCSRANVDAYLGGGRLSRVDSYVRDIHTPYEYEVPSTYDRYRSSSRGPSYSTINGYTAYISSPSYVETESTRRMKRYQRDTSPAMVRSMYEGRIGQLERSLSREVIQKDRVCLWRLGNVVYGGLYRKKYDADLEKAVQYYSSCAKKRRF | not soluble
6 | MSEVQQLPIRAVGEYVILVSEPAQAGDEEVTESGLIIGKRVQGEVPELCVVHSVGPDVPEGFCEVGDLTSLPVGQIRNVPHPFVALGLKQPKEIKQKFVTCHYKAIPCLYK | soluble
7 | MSFALGQRWISDTESDLGLGTVVALDARTVTLMFAASEENRVYARSDAPVTRVIFNVGDVVDSQQGWSLQVEQVVEDQGVYTYLGTRVDTEESGVALREIFLSNQIRFNKPQDKLFAGQIDRMDNFVLRY | not soluble
8 | MSFDSLGLSPDILRAVAEQGYREPTPIQQQAIPAVLEGRDLMASAQTGTGKTAGFTLPLLQHLITRQPHAKGRRPVRALILTPTRELAAQIGENVRDYSKYLNIRSLVVFGGVSINPQMMKLRGGVDVLVATPGRLLDLEHQNAVKLDQVEILVLDEADRMLDMGFIHDIRRVLTKLPAKRQNLLFSATFSDDIKALAEKLLHNPLEIEVARRNTASDQVTQHVHFVDKKRKRELLSHMIGKGNWQQVLVFTRTKHGANHLAEQLNKDGIRSAAIHGNKSQGARTRALADFKSGDIRVLVATDIAARGLDIEELPHVVNYELPNVPEDYVHRIGRTGRAAATGEALSLVCVDEHKLLRDIEKLLKKEIPRIAIPGYEPDPSIKAEPIQNGRQQRGGGGRGQGGGRGQQQPRRGEGGAKSASAKPAEKPSRRLGDAKPAGEQQRRRRPRKPAAAQ | soluble
9 | MSFFFLEVLTYFDYDSSMTIKAEIKALAKEIGISKIGFTTADNFDYLEKSLRASVEEGRNSGFEHKVIEDRIYTERLLESAKTIISIGVAYPHKLPQQPQKTPYKRGKITPSSWGLDYHYVVGEKLDRLSKGIEELCRDFPLQQKAMVDTGALVDTAVAQRAGIGFIGKNGLVISKEYGSYMFLGELITNLEIEPDKPVDYDCGDCRRCLDACPTSCLIGDGSMNAKRCLSFQTQDKGMMDIEFRKKIKTVIYGCDICQICCPYNKGINNSPATEIDPELAQPELIPFLSLSNGKFKEKFGMIAGSWRGKNILQRNAIIALANAHDKTAVVKLIEIIDKNNNPIHTATAIWALGEIVKKPNDEILAFMSHLTLKDEDSRKELELIRHKWQF | not soluble
10 | MSFKDYEYKRPNIEELKEKFTVALEKFDNAKTVEEQKQVIHSINEIRNDFGTMGNLCYIRHSVDTTDAFYKEEQDFFDEFSPVVQGYGTKYYNALIHSPFREELEAYYGKQLFALAECDLKTYSDEVVKDLQLENKLSSQYTQLLASAKIDFAGEERTLSQLIPFMQGKERSERKAASEAYYGFLAENEEELDRIYDELVKVRTKIAKSLGFKNFVELGYARMYRTDYNAEMVANYRQQVLDYIVPVTTELRKRQQARIGVEKLAYYDENFEFPTGNPTPKGDADWIVNHGKTMYKELSAETDEFFNFMLDNDLLDLVAKKGKAGGGYCTYIENYKAPFIFSNFNGTSGDIDVLTHEAGHAFQVYESRKFEIPEYNWPTYEACEIHSMSMEFFTWPWMKLFFEEDADKYYFSHLSSALLFLPYGVSVDEYQHYVYENPEASPEERKTAWRNIEKKYLPHRDYEDNDYLERGGFWQRQGHIYSSPFYYIDYTLAQICALQFWKRARDNRQEAWEDYVNLCQQGGSKSFLELVEVANLTSPFAEGCVKSVITEIEAWLHAIDDTKL | not soluble
11 | MSFRHFKRRLDTSSADESSSADEEHPDQNVSLTEKSASLSHSDLGGEILNGTGKNRTPNDGQESNESDGSPESDESPESEESSDNSDSSDSDDMRPLPRPLFMKKKANNLQKATKIDQPWNAQDDARVLQTKKENMIKNIDKANQVAKNYETMKLRLNTNYSTNEELIKQCLLLDDNDEVDSEKERQKWFERQNERKQKHRRIQLAKQRESEEYEAKRFEAMQKGKDGNTKYDVILDKEKEKLDHKKQRSAEKVEKSHNNNRYKITRTKNVEFGDLGKNSRDYEETEYSVI | soluble
12 | MSFSRRPKVTKSDIVDQIALNIKNNNLKLEKKYIRLVIDAFFEELKSNLCSNNVIEFRSFGTFEVRKRKGRLNARNPQTGEYVKVLDHHVAYFRPGKDLKERVWGIKG | soluble
13 | MSFTQLMRVSMKIAFIGEAVSGFGGMETVIRDVITTFRQQHIQSEMFFFCRNDKMDKGWLEGIKYSCSFSNIRLGFLRRAKHIHALSKWLQEYQPDIVICIDVISCLFAAKARKKSGIDMPVFSWPHFSLDHKKHAEYITCADYHLAISSGIKQQMINRGVAESTINVIFNPVETKDSVIPAPEEGETATFIYVGRMKFEGQKRVKDLLDGLSQAKGNWKLHVLGDGSDFEKCQAYGRELNIDDRIVWYGWQQYPWELVQQDIEKVSALLLTSSFEGFPMTLLEALSWGIPCISADCVSGPADIIQPDVNGHLYQPGDIAGFVTLLNKYIAGEIHIEHEKIPASIDEFYQSKYYDRLHKVIISAISRRK | not soluble
14 | MSFVKKTKNFFGLDGEADPYMEHSDAYYDEPRYEPAPAYSAPRYEEPIYASARPRAARPMPTHIVPVRLLTYSDAAIKVGDPFRDGDAVVFDMSDMHKGEAKRIIDFAAGLCFALRGQMRKLDGRIFALVPESASVDENDLKHAAGLIHLEHHHHHH | not soluble
15 | MSFVNVDPFGMLAAAATLESLGSHMAVSNAAVASVTTKVPPPAADYVSKKLSLFFSSHGQQYQVQAARGTAFHRKLVRTLANGALAYEEVEIANNEGF | not soluble
16 | MSGAAKRVATSSVNWSKLAERLVPEHAAELTRVKGVSGTFQSAVSQLPADLPKIDFAALKKALPAHSAVLDSLQKQYESVKIPYGEVPAEYLKEVDQWVDYNNARIKLHEVKVADGLQEAKKVEEKWAKAPPVEHFDRQHFVEYFPAHFYDLRYQNRIPDPCNIGLNETPEIENRFKDYKVLRRADKVDDH | not soluble
17 | MSGAFNNDGRGISPLIATSWERCNKLMKRETWNVPHQAQGVTFASIYRRKKAMLTLGQAALEDAWEYMAPRECALFILDETACILSRNGDPQTLQQLSALGFNDGTYCAEGIIGTCALSLAAISGQAVKTMADQHFKQVLWNWAFCATPLFDSKGRLTGTIALACPVEQTTAADLPLTLAIAREVGNLLLTDSLLAETNRHLNQLNALLESMDDGVISWDEQGNLQFINAQAARVLRLDATASQGRAITELLTLPAVLQQAIKQAHPLKHVEATFESQHQFIDAVITLKPIIETQGTSFILLLHPVEQMRQLMTSQLGKVSHTFAHMPQDDPQTRRLIHFGRQAARSSFPVLLCGEEGVGKALLSQAIHNESERAAGPYIAVNCELYGDAALAEEFIGGDRTDNENGRLSRLELAHGGTLFLEKIEYLAVELQSALLQVIKQGVITRLDARRLIPIDVKVIATTTADLAMLVEQNRFSRQLYYALHAFEITIPPLRMRRGSIPALVNNKLRSLEKRFSTRLKIDDDALARLVSCAWPGNDFELYSVIENLALSSDNGRIRVSDLPEHLFTEQATDDVSATRLSTSLSFAEVEKEAIINAAQVTGGRIQEMSALLGIGRTTLWRKMKQHGIDAGQFKRRV | soluble
18 | MSGIFGVIVSGRTPIEVVPVSDTEFTCEIVNADAINHVVVFLTGAQPFPDGIGGSGDHFQNFPPKKTQFISVYIRWPTQDGGNWHYLGFICNEKPSAIYKVAQLHKSDASHSFSQFDNQMQLYSSGSAQIGINAESLSDITGRQAADGTQASQQVKNLEKNT | soluble
19 | MSGKEPLNPNPVIASGRKCRLKDSSDGIFRKGRDALEKTAFQAGILFARQRGGIGRAGKRTGGGSFMPSESPPLRLFAKKVGKGTYNPVQSSINI | not soluble
